Binding data for 2 sequences are collected here from publication PMC9993118.

Common to all, as to conditions: EMSA: Pierce EMSA kit conditions, 15 min, 7.5% polyacrylamide gel at room temperature; footprinting: 20 mM Tris-HCl pH 7.5, 80 mM NaCl, 1 mM EDTA, 100 ug/ml …
(In general: In EMSA bound probe runs differently from free probe, usually more slowly.)

Data set [1] has as its target T1, Fis (Escherichia coli) (UniProt P0A6R3).
T1 sequence: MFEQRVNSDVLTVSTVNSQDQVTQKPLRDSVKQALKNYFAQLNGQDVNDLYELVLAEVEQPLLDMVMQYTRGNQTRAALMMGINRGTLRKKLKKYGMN
The data set is described as follows: EMSA.

Data set [2] has as its target T2, Lrp (UniProt P0ACJ0).
T2 sequence: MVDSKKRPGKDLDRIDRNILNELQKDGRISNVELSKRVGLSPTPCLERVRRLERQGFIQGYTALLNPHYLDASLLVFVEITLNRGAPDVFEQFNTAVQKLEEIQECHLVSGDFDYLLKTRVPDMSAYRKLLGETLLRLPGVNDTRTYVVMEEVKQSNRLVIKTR
Kind of data set: EMSA.

Data set [3] has as its target T2, Lrp. The data set is described as follows: competition EMSA.

On to “CCCCCAAAAGATGAAACATTTGGGGCCATTTTGACTCATAGAGGAAAGCATCGCGGACAAACTTTTTCAGTTTATTTGTTGGCTTAATATTCTATTGTTATCTTTATTTATAGATGTTTATATTGCATGAGGTGG (double strand) [fimS 135 bp probe (wild type)]”, for which the binding result in data set [1], in data set [2] and in data set [3] was “binds” in each case.
For “CCACCTCATGCAATATAAACATCTATAAATAAAGATAACAATAGAATATTAAGGGGTTAGCTAAACTGAAAAAGTTTGTCCGCGATGCTTTCCTCTATGAGTCAAAATGGCCCCAAATGTTTCATCTTTTGGGGG (double strand) [fimS 135 bp probe, Fis site disrupted]”, the binding result in data set [1] and in data set [2] was “binds more weakly” throughout.
